Experiments:
EWSR1 (wild type) = molecular target: T1, EWSR1 (wild type) (UniProt Q01844 1-656, limits assumed); test: binding assay in cells; method not described, data not shown
T1 construct: also called EWSR1-WT; HA-EWSR1
T1 sequence (looked up): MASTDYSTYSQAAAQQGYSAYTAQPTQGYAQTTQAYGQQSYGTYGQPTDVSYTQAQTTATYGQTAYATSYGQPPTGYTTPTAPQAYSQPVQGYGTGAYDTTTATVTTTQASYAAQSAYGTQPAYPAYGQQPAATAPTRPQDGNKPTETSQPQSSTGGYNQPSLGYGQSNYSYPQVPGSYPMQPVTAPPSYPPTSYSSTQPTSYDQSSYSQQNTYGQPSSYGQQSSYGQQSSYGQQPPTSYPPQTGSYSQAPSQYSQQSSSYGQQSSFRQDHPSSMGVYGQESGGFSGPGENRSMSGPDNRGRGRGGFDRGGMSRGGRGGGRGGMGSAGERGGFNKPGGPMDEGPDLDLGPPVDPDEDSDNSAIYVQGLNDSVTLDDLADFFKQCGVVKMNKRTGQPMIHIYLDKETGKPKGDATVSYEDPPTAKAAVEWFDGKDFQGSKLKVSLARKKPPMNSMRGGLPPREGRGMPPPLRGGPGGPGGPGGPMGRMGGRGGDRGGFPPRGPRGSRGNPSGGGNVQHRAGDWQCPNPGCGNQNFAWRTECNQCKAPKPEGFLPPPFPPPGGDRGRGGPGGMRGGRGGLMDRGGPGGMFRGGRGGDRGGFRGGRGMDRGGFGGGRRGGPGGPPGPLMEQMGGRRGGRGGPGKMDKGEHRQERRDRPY

CUL3 (wild type) = molecular target: T2, CUL3 (wild type) (UniProt Q13618 1-768); test: binding assay in cells; method not described
T2 construct: also called WT-CUL3; cullin 3

CUL3-E358Q = molecular target: T3, CUL3-E358Q (UniProt Q13618 1-768); test: binding assay in cells; method not described
T3 construct: also called E358Q-CUL3
T3 sequence (Q13618 whole entry E358Q): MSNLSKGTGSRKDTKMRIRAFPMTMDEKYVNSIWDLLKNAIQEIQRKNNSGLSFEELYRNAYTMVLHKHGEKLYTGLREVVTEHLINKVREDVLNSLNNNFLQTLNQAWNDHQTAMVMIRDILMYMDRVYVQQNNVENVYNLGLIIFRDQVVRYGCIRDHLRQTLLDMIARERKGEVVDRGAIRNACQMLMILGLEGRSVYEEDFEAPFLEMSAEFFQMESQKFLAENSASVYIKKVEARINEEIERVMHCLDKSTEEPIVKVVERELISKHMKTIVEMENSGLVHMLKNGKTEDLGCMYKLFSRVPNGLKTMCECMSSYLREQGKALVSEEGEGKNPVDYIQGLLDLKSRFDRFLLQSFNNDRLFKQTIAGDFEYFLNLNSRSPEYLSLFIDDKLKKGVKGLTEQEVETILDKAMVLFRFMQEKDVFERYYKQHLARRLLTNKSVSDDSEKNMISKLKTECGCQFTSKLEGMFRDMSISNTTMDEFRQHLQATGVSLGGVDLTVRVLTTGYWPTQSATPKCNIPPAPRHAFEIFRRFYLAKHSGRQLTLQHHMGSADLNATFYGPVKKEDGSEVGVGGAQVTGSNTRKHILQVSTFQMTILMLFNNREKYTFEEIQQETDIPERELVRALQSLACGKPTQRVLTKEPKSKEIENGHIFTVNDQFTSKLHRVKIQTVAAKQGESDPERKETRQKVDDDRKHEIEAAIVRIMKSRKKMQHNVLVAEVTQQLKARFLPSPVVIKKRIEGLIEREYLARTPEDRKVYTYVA

T2 sequence (Q13618 whole entry): as the sequence (Q13618 whole entry E358Q) above, with Q358E counted along it

binding result (EWSR1 (wild type)): no binding
binding result (CUL3 (wild type)): binds
binding result (CUL3-E358Q): binds
B1: SPOP (other, human, UniProt O43791 1-374, looked up)
chain: MSRVPSPPPPAEMSSGPVAESWCYTQIKVVKFSYMWTINNFSFCREEMGEVIKSSTFSSGANDKLKWCLRVNPKGLDEESKDYLSLYLLLVSCPKSEVRAKFKFSILNAKGEETKAMESQRAYRFVQGKDWGFKKFIRRDFLLDEANGLLPDDKLTLFCEVSVVQDSVNISGQNTMNMVKVPECRLADELGGLWENSRFTDCCLCVAGQEFQAHKAILAARSPVFSAMFEHEMEESKKNRVEINDVEPEVFKEMMCFIYTGKAPNLDKMADDLLAAADKYALERLKVMCEDALCSNLSVENAAEILILADLHSADQLKTQAVDFINYHASDVLETSGWKSMVVSHPHLVAEAYRSLASAQCPFLGPPRKRLKQS
notes: Exogenous SPOP carried a GST, Flag or HA tag; endogenous SPOP was also used; also called GST-SPOP; Flag-SPOP

From patent US20240197738A1 (UNIVERSITY OF NORTH CAROLINA AT CHAPEL HILL, published 2024)
